Substrate in series [1]: CC(C)=CCOP(=O)(O)OP(=O)(O)O
As to the kind of experiment: purified protein, by the assay type. Conditions: 100 mM TAPS pH 8.5, 10 mM MgCl2, 37° C., means ± SD, n = 3, pH 8.5, 37.0 °C.

Substrate in series [2]: CC(C)=CCC/C(C)=C/CC/C(C)=C/CO[P@@](=O)(O)OP(=O)(O)O
Put plainly: purified protein, by the assay type. Conditions: 100 mM TAPS pH 8.5, 10 mM MgCl2, 37° C., means ± SD, n = 3, pH 8.5, 37.0 °C.

Substrate in series [3]: C=C(C)CCOP(=O)(O)O
Put plainly: purified protein, by the assay type. Particulars: other: substrate of N. tabacum IPK; pH 7.5, 30° C.; pH 7.5; 30.0 °C.

Substrate in series [4]: CC(C)=CCOP(=O)(O)O
Put plainly: NtIPK kinetics, lactate dehydrogenase/pyruvate kinase coupled assay. Format: biochemical. Conditions: other: substrate of N. tabacum IPK, pH 7.5, 30° C.

Substrate in series [5]: CC(C)=CCC/C(C)=C/COP(=O)(O)O
The description is as above. In kind it is biochemical. Particulars: other: substrate of N. tabacum IPK, pH 7.5, 30° C.

One may read the Km as the substrate concentration at which the rate is half of its maximum. For orientation: kcat means the number of substrate molecules converted per active site and unit of time at saturation. A word on the kcat/Km: it is the turnover number divided by the Michaelis constant.

B1: A. thaliana Nudx1 (Arabidopsis thaliana) (protein)
chain: MSTGEAIPRVAVVVFILNGNSILLGRRRSSIGNSTFALPGGHLEFGESFEECAAREVMEETGLKIEKMKLLTVTNNVFKEAPTPSHYVSVSIRAVLVDPSQEPKNMEPEKCEGWDWYDWENLPKPLFWPLEKLFGSGFNPFTHGGGD
B1: in series [1] (other: substrate of AtNudx1), the Km was found to be 10.7 ± 1.8 µM, the kcat worked out at 1.7 ± 0.07 s⁻¹ and the kcat/Km is on record as 1.6 × 10^5 ± 0.3 M^−1 s^−1. Also, in series [2] (other: substrate of AtNudx1), the Michaelis-Menten constant (Km) worked out at 8.7 ± 1.6 µM, the kcat amounted to 1.35 ± 0.06 s⁻¹ and the kcat/Km is recorded as 1.6 × 10^5 ± 0.3 M^−1 s^−1.

B2: N. tabacum IPK (Nicotiana tabacum) (protein)
chain: MEQNKASAPVPPTKRVRCIVKLGGAAITCKNKLETIDEENLTEVSSQLRQALIPNSDSAKILGMDWSKRPGQSEPPSFVDEFSDQPVADSESFIVVHGAGSFGHFQASKSGVHKGGLSRPLVKAGFVATRISVTSLNLEIVRALAREGIPSIGMSPFSCGWSTCQRNMTEADISMVIKAIDAGFIPVLHGDAVLDTLQECTILSGDVIIRHLAAELKPEFVVFLTDVLGVYDRPPVEPGAVLIREIAVREDGSWSVVKPRLEDTSKPVEFTVAAHDTTGGMVTKITEAAMIAKLGIDVYITKVGAGRNGPLSESPEWNLERQHT
Consider B2, for which, in series [3], the Km amounted to 4.0 ± 1.5 µM, the kcat stood at 0.93 s⁻¹ and the kcat/Km is 230000 M⁻¹ s⁻¹. Also, in series [4], the Km is 8.5 ± 2.3 µM, the kcat turned out to be 1.2 ± 0.06 s⁻¹ and the kcat/Km worked out at 140000 M⁻¹ s⁻¹. Also, in series [5], the Michaelis constant (Km) was found to be 100 ± 60 µM, the kcat amounted to 0.0017 ± 0.0002 s⁻¹ and the kcat/Km was found to be 17 M⁻¹ s⁻¹.

B3: A. thaliana Nudx3 (Arabidopsis thaliana) (protein)
chain: MAEEHFDVLTKSGEKTGVSKPRGEVHRDGDYHRAVHVWIFVETTQQLLLQLRSDDKDSWPGQWDISSAGHISAGDTSLLSAQRELEEELGVKLPKDAFEKIFVFLQECVTNDGKFINNEFNDVYLVTILHPIPLEAFTLQKEEVSAVKYVPYEEYRNFLSKEDPAYVPYDVNGEYGKLFDIIRQRCQVNTEARSLSLQKQLQRYSPVTLEAKLTELSEADQKALGLIVKAAKIMDDIFYEQVWNSNPALRDWLKDHANASKLDKLKWDYFTINKSPWSSLDENEAFLSTADSAVKLLPGATKAIAGWKGLEYRAAFPVTKPPGANFYPPDMDKMEFTLWLNGLTEEQKHAATGFFSVIKRRSEANLDASDHLASSTKKLPDSNSDLYSIPYSEIYRPFLKKASEFLQKAGDLVSSPSLKKLLHSKAEAFLSNEYYESDIAWMDLDSKLDITIGPYETYEDEIFGYKATFETFIGIRDDKATADLKLFGDNLKLLEDNLPLESVYKSTDVSAAPIRVIQLIYNSGDVKGPQTVAYNLPNDEKIVKDRGTSMVMLKNVQEAKFEHILKPIAEITISKEQRGLVDFDSFFTHTICHECCHGIGPHTITLPGGQTSTVRKELQEVHSAMEEAKADIVGLWALKFLITKGLLSKSMVESMYVSFLAGCFRSIRFGLTEAHGKGQALQFNYLYEKGAFVFHEDSTFSVDFAKIEGAVESLSHEILTIQGKGDKNAATLLLNKYCTITGPLKTALENLERVKVPVDISPTFPLAEALMN
Turning to B3, in series [1] (other: substrate of AtNudx3), the Km amounted to 44 ± 8 µM, the kcat came to 7.1 ± 0.3 s⁻¹ and the kcat/Km is on record as 1.6 × 10^5 ± 0.3 M^−1 s^−1. In series [2] (other: substrate of AtNudx3), the Michaelis-Menten constant (Km) came to 58 ± 10 µM, the kcat was determined as 3.3 ± 0.3 s⁻¹ and the kcat/Km was 5.7 × 10^4 ± 0.5 M^−1 s^−1.
